Data on twelve molecules can be found in patent publication US7642231 (MAYO FOUNDATION FOR MEDICAL EDUCATION AND RESEARCH A …, dated 2010).

Assay [1] concerns the target NT binding sites within rat brain (PAG and rest of brain homogenates) (rat). The experiment in a line: 0.3 nM [125I]NT binding to PAG homogenate of control rats.
Assay [2] shares this target. Put plainly: 0.3 nM [125I]NT binding to PAG homogenate of NT69L-treated rats.
The target is the same in assay [3]. Put plainly: 0.3 nM [125I]NT binding to rest-of-brain homogenate of NT69L-treated rats.
Assay [4] has as its target T1, human NTR1 (human, UniProt P30989 1-418). Put plainly: cell-based or functional assay.
The target of assay [5] is T2, rat NTR1 (rat, UniProt P20789 1-424). The experiment in a line: cell-based or functional assay.
For assay [6], the target named is Dopamine receptors, human brain tissue (human) (UniProt P14416). Put plainly: radiolabeled competitive binding assay, human brain tissue.
Assay [7] addresses adrenergic α2 receptors, human brain tissue (human). The assay is described as above.
Assay [8] deals with T3, 5HT2A receptor in human brain tissue (human, UniProt P28223 1-471).
T3 construct: whole, on cells; Native receptor in human brain tissue, labeled with [3H]ketanserin; also called serotonin receptor
Put plainly: competition with [3H]ketanserin, human brain tissue.

The target of assay [9] is T1, human NTR1. The experiment in a line: competition with [3H]NT, membranes of CHO-K1 cells expressing human NTR1.
Assay [10] addresses T2, rat NTR1. The experiment in a line: competition with [3H]NT, membranes of CHO-K1 cells expressing rat NTR1. The protocol:
(§1) For binding assays, crude membranal preparations were prepared by centrifugation of the cellular pellet at 35,600×g for ten minutes. The supernatant was decanted and discarded, and the cellular pellet was resuspended in 2 mL of Tris-HCl, 1 mM EDTA (pH 7.4) followed by homogenization with a Brinkmann Polytron at setting 6 for ten seconds. Centrifugation was repeated as above and the supernatant was decanted and discarded. The resulting final cellular pellet was resuspended in 50 mM Tris-HCl, 1 mM EDTA, 0.1% bovine serum albumin, and 0.2 mM bacitracin.
(§2) Incubation was at 20° C. for 30 minutes. Each reaction was terminated by addition of cold 0.9% NaCl (5×1.5 mL) followed by rapid filtration through a GF/B filter strip that had been pretreated with 0.2% polyethylenimine.

Assay [11] concerns the target T2, rat NTR1. Put plainly: radiolabeled competitive binding assay, CHO cells expressing rat NTR (repeats Table II). The protocol: as §1, §2
The target in assay [12] is T1, human NTR1. The experiment in a line: radiolabeled competitive binding assay, CHO cells expressing human NTR (repeats Table II). Here is the method:
as §1, §2

In assay [13] the target is T1, human NTR1. The experiment in a line: competition with [3H]NT, membranes of CHO-K1 cells expressing human NTR1. The protocol: as §1, §2
In assay [14] the target is T1, human NTR1. Put plainly: competition with [3H]NT, CHO-K1 membranes; receptor not given, human fits Table II. The protocol:
as §1, §2

Assay [15] concerns the target T1, human NTR1. The experiment in a line: cell-based or functional assay. The source holds these as a separate data set.
Assay [16] deals with T1, human NTR1. The experiment in a line: cell-based or functional assay. The source holds these as a separate data set.
Assay [17] addresses adrenergic α1 receptors, human brain tissue (human). The experiment in a line: radiolabeled competitive binding assay, human brain tissue.
The target of assay [18] is T1, human NTR1. Put plainly: competition with [3H]NT, CHO-K1 membranes; receptor not given, human taken from the context. The protocol:
as §1, §2

Like-named read-outs stand apart in the source and are kept apart here. Numbered stars: 1 amine (or outer) side, 2 acyl side, 3 side chain; on linkers, the order of the positions; unused ones are H or OH. Square brackets hold non-standard residues; d marks the D form. Ends that are not written are not given here. dneoTrp = D-neo-Trp, (2R)-2-amino-3-(1H-indol-4-yl)propanoic acid, O=C([C@@H](Cc1cccc2[nH]ccc12)N[*:1])[*:2]; Ala(indol-4-yl) = N[C@@H](Cc1cccc2[nH]ccc12)C(=O)O; 1Nal = N[C@@H](Cc1cccc2ccccc12)C(=O)O; NMeR = CN[C@@H](CCCNC(=N)N)C(=O)O; Tle = CC(C)(C)[C@H](N)C(=O)O

T2 sequence (P20789 whole entry): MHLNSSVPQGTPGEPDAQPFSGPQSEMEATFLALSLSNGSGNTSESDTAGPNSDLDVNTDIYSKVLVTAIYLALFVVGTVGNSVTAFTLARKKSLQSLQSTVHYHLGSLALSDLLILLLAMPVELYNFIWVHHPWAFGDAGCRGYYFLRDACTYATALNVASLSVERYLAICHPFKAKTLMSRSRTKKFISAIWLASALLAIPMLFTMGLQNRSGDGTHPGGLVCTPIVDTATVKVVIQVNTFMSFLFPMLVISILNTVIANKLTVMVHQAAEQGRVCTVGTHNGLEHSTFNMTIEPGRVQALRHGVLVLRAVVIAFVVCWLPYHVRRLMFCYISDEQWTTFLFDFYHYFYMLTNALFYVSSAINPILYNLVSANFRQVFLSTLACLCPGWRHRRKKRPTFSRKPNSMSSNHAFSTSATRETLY
T1 sequence (P30989 whole entry): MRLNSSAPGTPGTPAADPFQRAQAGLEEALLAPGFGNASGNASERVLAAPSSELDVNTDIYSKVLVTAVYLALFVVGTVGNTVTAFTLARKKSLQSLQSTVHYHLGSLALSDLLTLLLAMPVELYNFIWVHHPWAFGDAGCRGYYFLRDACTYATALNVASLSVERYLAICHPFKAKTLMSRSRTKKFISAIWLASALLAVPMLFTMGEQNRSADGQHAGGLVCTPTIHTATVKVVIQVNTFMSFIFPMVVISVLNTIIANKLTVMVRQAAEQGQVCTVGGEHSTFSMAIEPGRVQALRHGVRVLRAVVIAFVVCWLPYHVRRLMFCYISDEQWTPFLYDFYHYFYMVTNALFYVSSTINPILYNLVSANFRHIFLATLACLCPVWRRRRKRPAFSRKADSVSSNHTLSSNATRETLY
T3 sequence (P28223 whole entry): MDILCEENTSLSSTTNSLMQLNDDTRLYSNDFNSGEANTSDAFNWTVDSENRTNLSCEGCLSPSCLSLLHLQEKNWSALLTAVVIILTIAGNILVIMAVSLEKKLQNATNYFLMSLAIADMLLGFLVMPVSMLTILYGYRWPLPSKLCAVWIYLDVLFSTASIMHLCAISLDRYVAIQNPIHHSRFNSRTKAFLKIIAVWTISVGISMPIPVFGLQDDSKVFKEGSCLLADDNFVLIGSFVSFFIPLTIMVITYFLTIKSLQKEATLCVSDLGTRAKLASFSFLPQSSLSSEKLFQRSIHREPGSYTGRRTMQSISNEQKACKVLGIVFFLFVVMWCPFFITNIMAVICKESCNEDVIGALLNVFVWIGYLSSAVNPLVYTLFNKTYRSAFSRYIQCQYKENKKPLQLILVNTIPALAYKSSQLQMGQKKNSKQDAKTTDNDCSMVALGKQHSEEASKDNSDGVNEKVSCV
Dopamine receptors, human brain tissue (human), sequence (P14416 whole entry): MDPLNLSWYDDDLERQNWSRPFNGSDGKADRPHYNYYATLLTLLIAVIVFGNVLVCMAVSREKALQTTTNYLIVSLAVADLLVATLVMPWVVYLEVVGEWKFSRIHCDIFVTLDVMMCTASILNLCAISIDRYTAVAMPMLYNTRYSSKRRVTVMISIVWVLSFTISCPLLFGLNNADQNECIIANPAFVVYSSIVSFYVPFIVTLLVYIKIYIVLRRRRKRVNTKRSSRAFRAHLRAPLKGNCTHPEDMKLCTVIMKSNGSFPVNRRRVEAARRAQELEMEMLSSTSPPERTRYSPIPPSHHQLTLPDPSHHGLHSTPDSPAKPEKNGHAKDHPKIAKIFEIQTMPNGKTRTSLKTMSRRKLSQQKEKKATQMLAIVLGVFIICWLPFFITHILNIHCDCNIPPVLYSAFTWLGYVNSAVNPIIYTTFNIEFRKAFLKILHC

For the molecule Neurotensin (NT) (peptide), the dpm/µg protein (dpm/µg protein) in assay [1] was determined as 2.34; in [2], 1.89; in assay [3] it was 2.1.
For the molecule NT69L (peptide), the PI Turnover EC50 with human NTR1 [4] came out at 2.3 nM; with rat NTR1 [5], 1.34 nM. In addition, the values for the PI turnover potency, fold improvement over Eisai analog with human NTR1 [4] and in the assay with rat NTR1 [5] were 130 fold and 2 fold, respectively. Besides, the Kd (as a rule, the equilibrium constant for the complex coming apart) in [6] amounted to 13300 nM; in assay [7], 58600 nM; in assay [8], 34600 nM; in the assay with human NTR1 [9], 1.55 nM; with rat NTR1 [10], 0.82 nM; in the assay with rat NTR1 [11], 0.82 nM. In the assay with human NTR1 [12], this molecule showed an equilibrium dissociation constant (Kd) of 1.55 nM. In addition, the values for the fold increase in binding affinity over Eisai with human NTR1 [9] and with rat NTR1 [10] were 60 fold and 6 fold, respectively.
With RRP[Ala(indol-4-yl)][Tle]L (NT(8-13) analog) [NT65L], the figures for the Kd in the assay with rat NTR1 [10] and in the assay with human NTR1 [13] were 0.075 nM and 0.32 nM, respectively. Also, the “fold decrease in binding affinity compared to NT64L” value with human NTR1 [14] was 3 fold.

B1: Eisai (peptide)
peptide: [NMeR]KPW[Tle]L
notes: Hexapeptide N-methyl-Arg, L-Lys, L-Pro, L-Trp, tert-Leu, L-Leu (Tsuchiya et al., EP application 89104302.8); also called Eisai compound; Eisai analog
Turning to B1, the “PI turnover potency, fold weaker at human than at rat NT receptor” value with human NTR1 [15] was around 100 fold. In addition, the “PI Turnover EC50” value with human NTR1 [16] is 300 nM; in the assay with rat NTR1 [5], 3.1 nM. For the same molecule, the Kd with rat NTR1 [10] came to 5.4 nM; with human NTR1 [13] it was 95 nM. Further, in the assay with human NTR1 [13], the “fold weaker than at the rat receptor” value was around 20 fold.
For [dK]RP[Ala(indol-4-yl)]IL (NT(8-13) analog) [NT67L], in the assay with rat NTR1 [5], the “PI Turnover EC50” value came to 13 nM. In addition, the Kd stood at 6900 nM in assay [17], 7400 nM in assay [8], 0.21 nM with rat NTR1 [10] and 0.21 nM in the assay with rat NTR1 [11].
In the case of [dK]RPYIL (NT(8-13) analog) [NT2], the equilibrium dissociation constant (Kd) in assay [8] was 6800 nM; with rat NTR1 [10] it was 0.8 nM.
Molecule RRP[1Nal]IL (NT(8-13) analog) [NT34] returned a Kd with rat NTR1 [10] of 0.046 nM.
Regarding RRP[Ala(indol-4-yl)]IL (NT(8-13) analog) [NT64L], in the assay with rat NTR1 [5], the “PI Turnover EC50” value was 2.3 nM. Also, the Kd came out at 6600 nM in assay [8] and 0.1 nM in the assay with rat NTR1 [10].
For the molecule RRP[dneoTrp]IL (NT(8-13) analog) [NT64D], in the assay with rat NTR1 [10], the affinity, expressed as Kd, was 3.8 nM.

B2: NT(8-13) (peptide)
peptide: RRPYIL
notes: Synthetic hexapeptide, residues 8-13 of neurotensin
Molecule B2 displayed a dissociation constant (Kd) in assay [8] of 4400 nM.
For RRPWIL [NTW], the “PI Turnover EC50” value with human NTR1 [16] stood at 110 nM. Further, the Kd with rat NTR1 [10] was determined as 0.34 nM; with human NTR1 [13] it was 3.2 nM. In addition, the “fold reduction in binding affinity compared to NT64L” value with human NTR1 [18] was above 30 fold.

B3: NT(9-13) (peptide)
peptide: RPYIL
notes: Synthetic pentapeptide, residues 9-13 of neurotensin
As for B3, in the assay with human NTR1 [16], the “PI Turnover EC50” value stood at 380 nM. The Kd came out at 6340 nM in assay [8], 46 nM with rat NTR1 [10] and 30 nM in the assay with human NTR1 [13]. For the same molecule, the “fold weaker than NT(8-13)” value in the assay with rat NTR1 [10] and with human NTR1 [13] was above 200 fold throughout.
